± gives the standard deviation of the averaged measurements.
Experiment: total protein half-life in vivo (active degradation + dilution); higher = more stable protein
[1] = wild type E. coli NCM3722, growth: C-lim chemostat, doubling time 3 h
[2] = wild type E. coli NCM3722, growth: C-lim chemostat, doubling time 6 h
[3] = wild type E. coli NCM3722, growth: C-lim chemostat, doubling time 12 h
[4] = E. coli NCM3722 delta-clpP delta-lon delta-hslV, growth: N-lim chemostat, doubling time 6 h
[5] = E. coli NCM3722 delta-smpB, growth: N-lim chemostat, doubling time 6 h
[6] = wild type E. coli NCM3722, growth: N-lim chemostat, doubling time 6 h
[7] = wild type E. coli NCM3722, growth: N-lim chemostat, doubling time 12 h
[8] = E. coli NCM3722 delta-clpP, growth: N-lim chemostat, doubling time 6 h
[9] = E. coli NCM3722 delta-hslV, growth: N-lim chemostat, doubling time 6 h
[10] = E. coli NCM3722 delta-lon, growth: N-lim chemostat, doubling time 6 h
[11] = wild type E. coli NCM3722, growth: P-lim chemostat, doubling time 6 h
[12] = wild type E. coli NCM3722, growth: P-lim chemostat, doubling time 12 h

Sequence	total protein half-life in vivo [1] [h]	total protein half-life in vivo [2] [h]	total protein half-life in vivo [3] [h]	total protein half-life in vivo [4] [h]	total protein half-life in vivo [5] [h]	total protein half-life in vivo [6] [h]	total protein half-life in vivo [7] [h]	total protein half-life in vivo [8] [h]	total protein half-life in vivo [9] [h]	total protein half-life in vivo [10] [h]	total protein half-life in vivo [11] [h]	total protein half-life in vivo [12] [h]
MRTFSGKRSTLALAIAGVTAMSGFMAMPEARAEGFIDDSTLTGGIYYWQRERDRKDVTDGDKYKTNLSHSTWNANLDFQSGYAADMFGLDIAAFTAIEMAENGDSSHPNEIAFSKSNKAYDEDWSGDKSGISLYKAAAKFKYGPVWARAGYIQPTGQTLLAPHWSFMPGTYQGAEAGANFDYGDAGALSFSYMWTNEYKAPWHLEMDEFYQNDKTTKVDYLHSFGAKYDFKNNFVLEAAFGQAEGYIDQYFAKASYKFDIAGSPLTTSYQFYGTRDKVDDRSVNDLYDGTAWLQALTFGYRAADVVDLRLEGTWVKADGQQGYFLQRMTPTYASSNGRLDIWWDNRSDFNANGEKAVFFGAMYDLKNWNLPGFAIGASYVYAWDAKPATWQSNPDAYYDKNRTIEESAYSLDAVYTIQDGRAKGTMFKLHFTEYDNHSDIPSWGGGYGNIFQDERDVKFMVIAPFTIF	1.45	2.07	2.36	–	–	–	–	–	–	–	–	–
MSQAKSNKMGVVQLTILTMVNMMGSGIIMLPTKLAEVGTISIISWLVTAVGSMALAWAFAKCGMFSRKSGGMGGYAEYAFGKSGNFMANYTYGVSLLIANVAIAISAVGYGTELLGASLSPVQIGLATIGVLWICTVANFGGARITGQISSITVWGVIIPVVGLCIIGWFWFSPTLYVDSWNPHHAPFFSAVGSSIAMTLWAFLGLESACANTDVVENPERNVPIAVLGGTLGAAVIYIVSTNVIAGIVPNMELANSTAPFGLAFAQMFTPEVGKVIMALMVMSCCGSLLGWQFTIAQVFKSSSDEGYFPKIFSRVTKVDAPVQGMLTIVIIQSGLALMTISPSLNSQFNVLVNLAVVTNIIPYILSMAALVIIQKVANVPPSKAKVANFVAFVGAMYSFYALYSSGEEAMLYGSIVTFLGWTLYGLVSPRFELKNKHG [P0AAF1]	–	> 8	> 16	6.73 ± 1.1	5.34 ± 1	4.53	> 16	–	–	–	–	–
MSAIENFDAHTPMMQQYLRLKAQHPEILLFYRMGDFYELFYDDAKRASQLLDISLTKRGASAGEPIPMAGIPYHAVENYLAKLVNQGESVAICEQIGDPATSKGPVERKVVRIVTPGTISDEALLQERQDNLLAAIWQDSKGFGYATLDISSGRFRLSEPADRETMAAELQRTNPAELLYAEDFAEMSLIEGRRGLRRRPLWEFEIDTARQQLNLQFGTRDLVGFGVENAPRGLCAAGCLLQYAKDTQRTTLPHIRSITMEREQDSIIMDAATRRNLEITQNLAGGAENTLASVLDCTVTPMGSRMLKRWLHMPVRDTRVLLERQQTIGALQDFTAGLQPVLRQVGDLERILARLALRTARPRDLARMRHAFQQLPELRAQLETVDSAPVQALREKMGEFAELRDLLERAIIDTPPVLVRDGGVIASGYNEELDEWRALADGATDYLERLEVRERERTGLDTLKVGFNAVHGYYIQISRGQSHLAPINYMRRQTLKNAERYIIPELKEYEDKVLTSKGKALALEKQLYEELFDLLLPHLEALQQSASALAELDVLVNLAERAYTLNYTCPTFIDKPGIRITEGRHPVVEQVLNEPFIANPLNLSPQRRMLIITGPNMGGKSTYMRQTALIALMAYIGSYVPAQKVEIGPIDRIFTRVGAADDLASGRSTFMVEMTETANILHNATEYSLVLMDEIGRGTSTYDGLSLAWACAENLANKIKALTLFATHYFELTQLPEKMEGVANVHLDALEHGDTIAFMHSVQDGAASKSYGLAVAALAGVPKEVIKRARQKLRELESISPNAAATQVDGTQMSLLSVPEETSPAVEALENLDPDSLTPRQALEWIYRLKSLV	2.84 ± 0.36	4.96 ± 0.41	9.15 ± 1.4	5.91 ± 0.07	3.329 ± 0.022	3.7765 ± 0.0035	5.56 ± 0.91	5.059 ± 0.028	3.51 ± 0.062	3.99 ± 0.046	4.78 ± 0.42	7.5 ± 0.22
MRLPIFLDTDPGIDDAVAIAAAIFAPELDLQLMTTVAGNVSVEKTTRNALQLLHFWNAEIPLAQGAAVPLVRAPRDAASVHGESGMAGYDFVEHNRKPLGIPAFLAIRDALMRAPEPVTLVAIGPLTNIALLLSQCPECKPYIRRLVIMGGSAGRGNCTPNAEFNIAADPEAAACVFRSGIEIVMCGLDVTNQAILTPDYLSTLPQLNRTGKMLHALFSHYRSGSMQSGLRMHDLCAIAWLVRPDLFTLKPCFVAVETQGEFTSGTTVVDIDGCLGKPANVQVALDLDVKGFQQWVAEVLALAS	2.8 ± 0.15	5.62 ± 0.1	9.27 ± 3.1	4.86 ± 1.4	3.64	3.89	11.1	4.75	–	4.13	–	8.95 ± 3.1
MKMTKLATLFLTATLSLASGAALAADSGAQTNNGQANAAADAGQVAPDARENVAPNNVDNNGVNTGSGGTMLHSDGSSMNNDGMTKDEEHKNTMCKDGRCPDINKKVQTGDGINNDVDTKTDGTTQ [P0AAV6]	1.7	5.24	4.86	4.05	3.73 ± 1.6	4.78	10.7 ± 3.5	4.92 ± 2.1	5.44 ± 0.35	6.63 ± 0.59	5.84	10.2 ± 1.1
MNRWENIQLTHENRLAPRAYFFSYDSVAQARTFARETSSLFLPLSGQWNFHFFDHPLQVPEAFTSELMADWGHITVPAMWQMEGHGKLQYTDEGFPFPIDVPFVPSDNPTGAYQRIFTLSDGWQGKQTLIKFDGVETYFEVYVNGQYVGFSKGSRLTAEFDISAMVKTGDNLLCVRVMQWADSTYVEDQDMWWSAGIFRDVYLVGKHLTHINDFTVRTDFDEAYCDATLSCEVVLENLAASPVVTTLEYTLFDGERVVHSSAIDHLAIEKLTSASFAFTVEQPQQWSAESPYLYHLVMTLKDANGNVLEVVPQRVGFRDIKVRDGLFWINNRYVMLHGVNRHDNDHRKGRAVGMDRVEKDLQLMKQHNINSVRTAHYPNDPRFYELCDIYGLFVMAETDVESHGFANVGDISRITDDPQWEKVYVERIVRHIHAQKNHPSIIIWSLGNESGYGCNIRAMYHAAKALDDTRLVHYEEDRDAEVVDIISTMYTRVPLMNEFGEYPHPKPRIICEYAHAMGNGPGGLTEYQNVFYKHDCIQGHYVWEWCDHGIQAQDDHGNVWYKFGGDYGDYPNNYNFCLDGLIYSDQTPGPGLKEYKQVIAPVKIHARDLTRGELKVENKLWFTTLDDYTLHAEVRAEGETLATQQIKLRDVAPNSEAPLQITLPQLDAREAFLNITVTKDSRTRYSEAGHPIATYQFPLKENTAQPVPFAPNNARPLTLEDDRLSCTVRGYNFAITFSKMSGKPTSWQVNGESLLTREPKINFFKPMIDNHKQEYEGLWQPNHLQIMQEHLRDFAVEQSDGEVLIISRTVIAPPVFDFGMRCTYIWRIAADGQVNVALSGERYGDYPHIIPCIGFTMGINGEYDQVAYYGRGPGENYADSQQANIIDIWRSTVDAMFENYPFPQNNGNRQHVRWTALTNRHGNGLLVVPQRPINFSAWHYTQENIHAAQHCNELQRSDDITLNLDHQLLGLGSNSWGSEVLDSWRVWFRDFSYGFTLLPVSGGEATAQSLASYEFGAGFFSTNLHSENKQ	3.17 ± 0.0082	5.26 ± 0.23	12.4 ± 2	–	–	–	–	–	–	–	–	–
MTTVYTLVSWLAILGYWLLIAGVTLRILMKRRAVPSAMAWLLIIYILPLVGIIAYLAVGELHLGKRRAERARAMWPSTAKWLNDLKACKHIFAEENSSVAAPLFKLCERRQGIAGVKGNQLQLMTESDDVMQALIRDIQLARHNIEMVFYIWQPGGMADQVAESLMAAARRGIHCRLMLDSAGSVAFFRSPWPELMRNAGIEVVEALKVNLMRVFLRRMDLRQHRKMIMIDNYIAYTGSMNMVDPRYFKQDAGVGQWIDLMARMEGPIATAMGIIYSCDWEIETGKRILPPPPDVNIMPFEQASGHTIHTIASGPGFPEDLIHQALLTAAYSAREYLIMTTPYFVPSDDLLHAICTAAQRGVDVSIILPRKNDSMLVGWASRAFFTELLAAGVKIYQFEGGLLHTKSVLVDGELSLVGTVNLDMRSLWLNFEITLAIDDKGFGADLAAVQDDYISRSRLLDARLWLKRPLWQRVAERLFYFFSPLL [P0A6H8]	3.38 ± 0.26	6.636 ± 0.027	13.5 ± 0.82	6.74 ± 0.71	6.25 ± 0.099	6.16 ± 0.22	13.1 ± 1.4	–	7.06 ± 0.36	6.87 ± 0.85	6.275 ± 0.026	13.1 ± 0.13
MSKEHTTEHLRAELKSLSDTLEEVLSSSGEKSKEELSKIRSKAEQALKQSRYRLGETGDAIAKQTRVAAARADEYVRENPWTGVGIGAAIGVVLGVLLSRR	2.81 ± 0.54	5.64 ± 0.14	9.35 ± 1.2	5.56 ± 0.57	4.81 ± 0.094	5.47 ± 0.066	9.88 ± 0.33	6.08 ± 0.86	5.45 ± 0.11	6.206 ± 0.014	5.55 ± 0.1	10.7 ± 1.2
MHITLRQLEVFAEVLKSGSTTQASVMLALSQSAVSAALTDLEGQLGVQLFDRVGKRLVVNEHGRLLYPRALALLEQAVEIEQLFREDNGAIRIYASSTIGNYILPAVIARYRHDYPQLPIELSVGNSQDVMQAVLDFRVDIGFIEGPCHSTEIISEPWLEDELVVFAAPTSPLARGPVTLEQLAAAPWILRERGSGTREIVDYLLLSHLPKFEMAMELGNSEAIKHAVRHGLGISCLSRRVIEDQLQAGTLSEVAVPLPRLMRTLWRIHHRQKHLSNALRRFLDYCDPANVPR [P0ACR4]	2.32	5.78 ± 0.65	13	5.84 ± 0.54	6.21	4.98 ± 0.021	9.4289 ± 0.0056	7.58	5.48	5.76 ± 0.15	5.59 ± 0.33	10.5 ± 1.9
MGSEISKKDITRLGFRSSLLQASFNYERMQAGGFTWAMLPILKKIYKDDKPGLSAAMKDNLEFINTHPNLVGFLMGLLISMEEKGENRDTIKGLKVALFGPIAGIGDAIFWFTLLPIMAGICSSFASQGNLLGPILFFAVYLLIFFLRVGWTHVGYSVGVKAIDKVRENSQMIARSATILGITVIGGLIASYVHINVVTSFAIDNTHSVALQQDFFDKVFPNILPMAYTLLMYYFLRVKKAHPVLLIGVTFVLSIVCSAFGIL	–	–	–	–	–	–	–	–	–	–	–	4.67
MAQLKFNSILVVCTGNICRSPIGERLLRKRLPGVKVKSAGVHGLVKHPADATAADVAANHGVSLEGHAGRKLTAEMARNYDLILAMESEHIAQVTAIAPEVRGKTMLFGQWLEQKEIPDPYRKSQDAFEHVYGMLERASQEWAKRLSR [P0ACZ2]	–	–	–	4.76 ± 0.95	–	–	–	–	–	–	2.72	–
MNMTKGALILSLSFLLAACSSIPQNIKGNNQPDIQKSFVAVHNQPGLYVGQQARFGGKVINVINGKTDTLLEISVLPLDSYAKPDIEANYQGRLLARQSGFLDPVNYRNHFVTILGTIQGEQPGFINKVPYNFLEVNMQGIQVWHLREVVNTTYNLWDYGYGAFWPEPGWGAPYYTNAVSQVTPELVK	–	–	14.6	–	6.62 ± 0.25	–	12.8 ± 0.086	6.72 ± 0.84	6.43 ± 0.72	–	5.75 ± 0.59	12.6 ± 1
MEMLEEHRCFEGWQQRWRHDSSTLNCPMTFSIFLPPPRDHTPPPVLYWLSGLTCNDENFTTKAGAQRVAAELGIVLVMPDTSPRGEKVANDDGYDLGQGAGFYLNATQPPWATHYRMYDYLRDELPALVQSQFNVSDRCAISGHSMGGHGALIMALKNPGKYTSVSAFAPIVNPCSVPWGIKAFSSYLGEDKNAWLEWDSCALMYASNAQDAIPTLIDQGDNDQFLADQLQPAVLAEAARQKAWPMTLRIQPGYDHSYYFIASFIEDHLRFHAQYLLK	3.5 ± 0.13	5.59 ± 0.15	13 ± 2.8	5.79 ± 0.058	5.19 ± 0.2	5.67 ± 0.38	8.798 ± 0.034	5.61 ± 0.89	–	6.09 ± 0.43	6.2 ± 0.11	11.9 ± 1.7

From the supplement of paper PMC11246515
